The Immune Epitope Database (IEDB)

What was measured:
Assay in all cases: IEDB peptide-MHC binding, purified MHC/competitive/radioactivity; filed as Kd, often an IC50 or EC50 that approximates it; ≥ and ≤ were set here for values at or beyond the usual limits of such assays
HLA-A*03:01 = biological target: HLA-A*03:01
HLA-A*11:01 = biological target: HLA-A*11:01
HLA-A*31:01 = biological target: HLA-A*31:01
HLA-A*33:01 = biological target: HLA-A*33:01
HLA-A*68:01 = biological target: HLA-A*68:01
[1] = source organism: Vaccinia virus WR
[2] = source organism: Dengue virus 3 Martinique/1243/1999
[3] = source organism: Dengue virus 1 Brazil/97-11/1997
[4] = source organism: Dengue virus 2 Jamaica/1409/1983
[5] = source organism: SARS coronavirus Tor2
[6] = source organism: Lassa virus GA391
[7] = source organism: Dengue virus 4 Philippines/H241/1956
[8] = source organism: Mammarenavirus juninense

## KAIITPVVFY
HLA-A*03:01; [1]
  Kd: 7470 nM
HLA-A*11:01; [1]
  Kd: 900 nM
HLA-A*31:01; [1]
  Kd: ≥ 70000 nM
HLA-A*33:01; [1]
  Kd: ≥ 70000 nM
HLA-A*68:01; [1]
  Kd: 6700 nM

## KAIKILIGFR
HLA-A*31:01; source organism: Dengue virus 4 Dominica/814669/1981
  Kd: 8.62 nM

## KALMQLTTK
HLA-A*03:01; [1]
  Kd: 181 nM
HLA-A*11:01; [1]
  Kd: 87.9 nM
HLA-A*31:01; [1]
  Kd: 135 nM
HLA-A*33:01; [1]
  Kd: 18600 nM
HLA-A*68:01; [1]
  Kd: 5800 nM

## KEFKDFAAGR
HLA-A*31:01; [2]
  Kd: 405 nM

## KFQADSPKR
HLA-A*31:01; [3]
  Kd: 39.9 nM

## KLIHEWCCR
HLA-A*31:01; [2]
  Kd: 39.6 nM

## KSEFQIYKK
HLA-A*11:01; [4]
  Kd: 244 nM

## KSSQRDTILK
HLA-A*11:01; source organism: Mammarenavirus brazilense
  Kd: 33.2 nM

## KTNCCRFQEK
HLA-A*03:01; [5]
  Kd: 38.3 nM
HLA-A*11:01; [5]
  Kd: 33.3 nM
HLA-A*31:01; [5]
  Kd: 50.5 nM
HLA-A*33:01; [5]
  Kd: ≥ 37700 nM
HLA-A*68:01; [5]
  Kd: 4220 nM

## KTQVGVGVQK
HLA-A*11:01; [2]
  Kd: 59.5 nM

## KVKYLYFIK
HLA-A*03:01; [5]
  Kd: 113 nM
HLA-A*11:01; [5]
  Kd: 49.1 nM
HLA-A*31:01; [5]
  Kd: 0.138 nM
HLA-A*33:01; [5]
  Kd: 9300 nM
HLA-A*68:01; [5]
  Kd: 968 nM

## LILNFLDWIK
HLA-A*03:01; [1]
  Kd: 25.1 nM
HLA-A*11:01; [1]
  Kd: 9.27 nM
HLA-A*31:01; [1]
  Kd: 163 nM
HLA-A*33:01; [1]
  Kd: 7300 nM
HLA-A*68:01; [1]
  Kd: 165 nM

## LILSNKLLY
HLA-A*03:01; [1]
  Kd: 13.7 nM
HLA-A*11:01; [1]
  Kd: 192 nM
HLA-A*31:01; [1]
  Kd: 5630 nM
HLA-A*33:01; [1]
  Kd: 13200 nM
HLA-A*68:01; [1]
  Kd: 5470 nM

## LIPLSEMVVK
HLA-A*03:01; [1]
  Kd: 766 nM
HLA-A*11:01; [1]
  Kd: 55.2 nM
HLA-A*31:01; [1]
  Kd: 7380 nM
HLA-A*33:01; [1]
  Kd: ≥ 24900 nM
HLA-A*68:01; [1]
  Kd: 1490 nM

## LMSGRGIGK
HLA-A*03:01; source organism: Dengue virus 2 Peru/IQT2913/1996
  Kd: 48 nM

## LMSIISTFH
HLA-A*03:01; [6]
  Kd: 2230 nM
HLA-A*11:01; [6]
  Kd: 11200 nM
HLA-A*31:01; [6]
  Kd: 481 nM
HLA-A*33:01; [6]
  Kd: ≥ 77700 nM
HLA-A*68:01; [6]
  Kd: 3160 nM

## LSKDKMDSFK
HLA-A*03:01; [1]
  Kd: 25.1 nM
HLA-A*11:01; [1]
  Kd: 15 nM
HLA-A*31:01; [1]
  Kd: 27.8 nM
HLA-A*33:01; [1]
  Kd: 304 nM
HLA-A*68:01; [1]
  Kd: 1.46 nM

## MGITAEWLWR
HLA-A*31:01; [2]
  Kd: 88.5 nM

## MLLQFAYSNR
HLA-A*03:01; [5]
  Kd: 164 nM
HLA-A*11:01; [5]
  Kd: 860 nM
HLA-A*31:01; [5]
  Kd: 22.5 nM
HLA-A*33:01; [5]
  Kd: 114 nM
HLA-A*68:01; [5]
  Kd: 50.8 nM

## MSSSVDVDIY
HLA-A*03:01; [1]
  Kd: ≥ 25900 nM
HLA-A*11:01; [1]
  Kd: 12500 nM
HLA-A*31:01; [1]
  Kd: ≥ 70000 nM
HLA-A*33:01; [1]
  Kd: ≥ 29700 nM
HLA-A*68:01; [1]
  Kd: 250 nM

## MTHRRPTIEK
HLA-A*03:01; [2]
  Kd: 5.64 nM
HLA-A*11:01; [2]
  Kd: 117 nM
HLA-A*68:01; [2]
  Kd: 196 nM

## MVEPWLSSK
HLA-A*11:01; [7]
  Kd: 648 nM

## NFIPIIYSK
HLA-A*03:01; [1]
  Kd: 8660 nM
HLA-A*11:01; [1]
  Kd: 212 nM
HLA-A*31:01; [1]
  Kd: 13.9 nM
HLA-A*33:01; [1]
  Kd: 25.6 nM
HLA-A*68:01; [1]
  Kd: 76.9 nM

## NMSFRDLGR
HLA-A*33:01; [4]
  Kd: 8.95 nM

## NSINNQLMY
HLA-A*03:01; [1]
  Kd: 4650 nM
HLA-A*11:01; [1]
  Kd: 132 nM
HLA-A*31:01; [1]
  Kd: ≥ 77900 nM
HLA-A*33:01; [1]
  Kd: ≥ 77700 nM
HLA-A*68:01; [1]
  Kd: 104 nM

## NSNIIKNKK
HLA-A*03:01; [1]
  Kd: 10200 nM
HLA-A*11:01; [1]
  Kd: 1240 nM
HLA-A*31:01; [1]
  Kd: 1250 nM
HLA-A*33:01; [1]
  Kd: 4300 nM
HLA-A*68:01; [1]
  Kd: 241 nM

## NVYADSFVVK
HLA-A*03:01; [5]
  Kd: 76.5 nM
HLA-A*11:01; [5]
  Kd: 101 nM
HLA-A*31:01; [5]
  Kd: 386 nM
HLA-A*33:01; [5]
  Kd: 972 nM
HLA-A*68:01; [5]
  Kd: 29.3 nM

## PFEKEFTSDY
HLA-A*03:01; [1]
  Kd: ≥ 70100 nM
HLA-A*11:01; [1]
  Kd: ≥ 69800 nM
HLA-A*31:01; [1]
  Kd: ≥ 70000 nM
HLA-A*33:01; [1]
  Kd: ≥ 70000 nM
HLA-A*68:01; [1]
  Kd: ≥ 70200 nM

## PFLALGFFLR
HLA-A*31:01; [2]
  Kd: 186 nM
HLA-A*33:01; [2]
  Kd: 286 nM

## PLLCNLNKSH
HLA-A*03:01; [8]
  Kd: ≥ 70000 nM
HLA-A*11:01; [8]
  Kd: ≥ 69700 nM
HLA-A*31:01; [8]
  Kd: ≥ 70000 nM
HLA-A*33:01; [8]
  Kd: ≥ 70000 nM
HLA-A*68:01; [8]
  Kd: ≥ 45800 nM

## PSRSKMLKR
HLA-A*03:01; [1]
  Kd: 16.4 nM
HLA-A*11:01; [1]
  Kd: 5560 nM
HLA-A*31:01; [1]
  Kd: 1890 nM
HLA-A*33:01; [1]
  Kd: ≥ 51600 nM
HLA-A*68:01; [1]
  Kd: ≥ 77700 nM

## PSVNEYHMLK
HLA-A*03:01; [1]
  Kd: 10.2 nM
HLA-A*11:01; [1]
  Kd: 13.7 nM
HLA-A*31:01; [1]
  Kd: 408 nM
HLA-A*33:01; [1]
  Kd: 11600 nM
HLA-A*68:01; [1]
  Kd: 469 nM

## QAELTSNCTR
HLA-A*03:01; [1]
  Kd: 2530 nM
HLA-A*11:01; [1]
  Kd: 2430 nM
HLA-A*31:01; [1]
  Kd: 801 nM
HLA-A*33:01; [1]
  Kd: 818 nM
HLA-A*68:01; [1]
  Kd: 240 nM

## QIDRLEDLSK
HLA-A*03:01; [1]
  Kd: 1450 nM
HLA-A*11:01; [1]
  Kd: 255 nM
HLA-A*31:01; [1]
  Kd: 6790 nM
HLA-A*33:01; [1]
  Kd: 14700 nM
HLA-A*68:01; [1]
  Kd: 2310 nM

## QLCYCPASKK
HLA-A*03:01; [1]
  Kd: 170 nM
HLA-A*11:01; [1]
  Kd: 96.2 nM
HLA-A*31:01; [1]
  Kd: 12500 nM
HLA-A*33:01; [1]
  Kd: ≥ 59500 nM
HLA-A*68:01; [1]
  Kd: 468 nM

## QQQGQTVTK
HLA-A*03:01; [5]
  Kd: 16600 nM
HLA-A*11:01; [5]
  Kd: 476 nM
HLA-A*31:01; [5]
  Kd: 3030 nM
HLA-A*33:01; [5]
  Kd: ≥ 30400 nM
HLA-A*68:01; [5]
  Kd: ≥ 50500 nM

## RIGTAATKR
HLA-A*03:01; [1]
  Kd: 180 nM
HLA-A*11:01; [1]
  Kd: 2420 nM
HLA-A*31:01; [1]
  Kd: 17.2 nM
HLA-A*33:01; [1]
  Kd: ≥ 77700 nM
HLA-A*68:01; [1]
  Kd: 325 nM

## RIGTAATKRY
HLA-A*03:01; [1]
  Kd: 1250 nM
HLA-A*11:01; [1]
  Kd: ≥ 69800 nM
HLA-A*31:01; [1]
  Kd: ≥ 70000 nM
HLA-A*33:01; [1]
  Kd: ≥ 70000 nM
HLA-A*68:01; [1]
  Kd: ≥ 59600 nM

## RILQRGLLGR
HLA-A*03:01; [3]
  Kd: 16.4 nM
HLA-A*31:01; [3]
  Kd: ≥ 70000 nM

## RTYSDPLALR
HLA-A*11:01; [3]
  Kd: 92.1 nM
HLA-A*31:01; [3]
  Kd: ≥ 70000 nM
HLA-A*68:01; [3]
  Kd: 18.8 nM

## SAAIDGEYR
HLA-A*68:01; [3]
  Kd: 41.6 nM

## SAKLQWFVER
HLA-A*31:01; [2]
  Kd: 34.7 nM
HLA-A*33:01; [2]
  Kd: 83 nM

## STSQETWNR
HLA-A*68:01; [3]
  Kd: 68.8 nM

## TFKVPHAKR
HLA-A*31:01; [7]
  Kd: 1.2 nM
HLA-A*33:01; [7]
  Kd: 15.8 nM

## TILIKVEYK
HLA-A*11:01; [2]
  Kd: 1250 nM

## TLLSLTFIK
HLA-A*03:01; [3]
  Kd: 1.36 nM
HLA-A*11:01; [3]
  Kd: 12.3 nM

## TTVITPMMR
HLA-A*68:01; [3]
  Kd: 34.6 nM

## VTFKVPHAK
HLA-A*03:01; [7]
  Kd: 10.2 nM
HLA-A*11:01; [7]
  Kd: 53.2 nM
HLA-A*68:01; [7]
  Kd: 177 nM

## YLALLAAFK
HLA-A*03:01; [4]
  Kd: 1.32 nM
HLA-A*68:01; [4]
  Kd: 18.4 nM

## YMPSMKRFRR
HLA-A*31:01; [4]
  Kd: 10.2 nM
HLA-A*33:01; [4]
  Kd: 10.7 nM
HLA-A*68:01; [4]
  Kd: 1110 nM
